The source of these data is paper PMC10208570, “Peptidomimetic antibiotics disrupt the lipopolysaccharide transport bridge of drug-resistant Enterobacteriaceae” (Science Advances, 2023).

This experiment deals with LptAm^Q62L (E. coli) (E. coli (ATCC 25922)). Briefly: fluorescence polarisation; indirect (competition) assay: unlabeled peptide or protein serially diluted into a 1:1 mixture of Lpt protein and 6-FL (2x stock 70 nM); 50 mM Na-Pi pH 7, 150 mM NaCl, 0.05% Tween 20; incubated overnight at 4°C, read at 25°C; triplicates; Ki from IC50 by Cheng-Prusoff.

One may read the Ki as the equilibrium dissociation constant of an inhibitor or competing ligand from its target.

B1: mLptA (E. coli), LptA(25-185) E39V M47A R76A (domain or fragment)
chain: GAFAVTGDTDQPIHIVSDQQSLDAQGNVVTFTGNVIVTQGTIKINADKVVVTAPGGEQGKEVIDGYGKPATFYQMQDNGKPVEGHASQMHYELAKDFVVLTGNAYLQQVDSNIKGDKITYLVKEQKMQAFSDKGKRVTTVLVPSQLQDKNNKGQTPAQKKGN
For the molecule B1, the Ki was determined as 69 nM.
